The values below come from paper PMC4113749 (Toxins, 2014).

The assay addresses TcdA^(1–542 D285/287N)-EGFP (Clostridium difficile (strain VPI 10463), UniProt P16154 1-542). The assay is described as follows: MST. Conditions: both partners purified.

B1: isolated TcdA CROPs (TcdA^1875–2710) (domain or fragment)
chain: YKIINGKHFYFNNDGVMQLGVFKGPDGFEYFAPANTQNNNIEGQAIVYQSKFLTLNGKKYYFDNNSKAVTGWRIINNEKYYFNPNNAIAAVGLQVIDNNKYYFNPDTAIISKGWQTVNGSRYYFDTDTAIAFNGYKTIDGKHFYFDSDCVVKIGVFSTSNGFEYFAPANTYNNNIEGQAIVYQSKFLTLNGKKYYFDNNSKAVTGLQTIDSKKYYFNTNTAEAATGWQTIDGKKYYFNTNTAEAATGWQTIDGKKYYFNTNTAIASTGYTIINGKHFYFNTDGIMQIGVFKGPNGFEYFAPANTDANNIEGQAILYQNEFLTLNGKKYYFGSDSKAVTGWRIINNKKYYFNPNNAIAAIHLCTINNDKYYFSYDGILQNGYITIERNNFYFDANNESKMVTGVFKGPNGFEYFAPANTHNNNIEGQAIVYQNKFLTLNGKKYYFDNDSKAVTGWQTIDGKKYYFNLNTAEAATGWQTIDGKKYYFNLNTAEAATGWQTIDGKKYYFNTNTFIASTGYTSINGKHFYFNTDGIMQIGVFKGPNGFEYFAPANTDANNIEGQAILYQNKFLTLNGKKYYFGSDSKAVTGLRTIDGKKYYFNTNTAVAVTGWQTINGKKYYFNTNTSIASTGYTIISGKHFYFNTDGIMQIGVFKGPDGFEYFAPANTDANNIEGQAIRYQNRFLYLHDNIYYFGNNSKAATGWVTIDGNRYYFEPNTAMGANGYKTIDNKNFYFRNGLPQIGVFKGSNGFEYFAPANTDANNIEGQAIRYQNRFLHLLGKIYYFGNNSKAVTGWQTINGKVYYFMPDTAMAAAGGLFEIDGVIYFFGVDGVKAPGIYG
As a reminder, the Kd is a measure of binding affinity in units of concentration. A lower Kd goes with a tighter complex. B1 showed a Kd of 2960 ± 180 nM.
